In publication PMC9041834, “Ubiquitin ligase activity inhibits Cdk5 to control axon termination” (PLoS Genetics, 2022):

Target: T1, GFP::FSN-1 CRISPR (endogenous FSN-1 N-terminally fused with GFP) (C. elegans, UniProt Q18223 1-332)
T1 construct: FSN-1, F-box protein of C. elegans (orthologue of human FBXO45), expressed from the endogenous locus; also called bgg47; source: C. elegans, endogenous locus tagged by CRISPR/Cas9, in whole animal lysate; not shown: GFP, N-terminal, kept
T1 sequence (looked up): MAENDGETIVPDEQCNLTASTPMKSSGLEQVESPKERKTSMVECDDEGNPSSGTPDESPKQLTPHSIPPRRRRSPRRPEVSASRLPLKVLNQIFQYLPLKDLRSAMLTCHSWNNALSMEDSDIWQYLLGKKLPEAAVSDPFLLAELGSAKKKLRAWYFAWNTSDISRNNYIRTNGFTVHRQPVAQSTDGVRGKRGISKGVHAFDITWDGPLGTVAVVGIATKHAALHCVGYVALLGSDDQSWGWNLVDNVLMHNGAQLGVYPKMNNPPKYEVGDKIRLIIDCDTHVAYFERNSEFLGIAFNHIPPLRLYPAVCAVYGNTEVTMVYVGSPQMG
Experiment: co-IP; CRISPR-tagged endogenous proteins in whole animal lysates of C. elegans (wild-type background, and rpm-1 LD CRISPR background for the FSN-1 pair); 50 mM Tris HCl pH 7.5, 150 mM NaCl, 1.5 mM MgCl2, 10% glycerol, 0.1% NP-40, 1 mM DTT; anti-FLAG or anti-GFP, protein-G agarose 4 h at 4°C; immunoblot
Conditions: partners not purified

B1: CDK-5::3xFLAG CRISPR (endogenous CDK-5 C-terminally tagged with 3xFLAG) (enzyme)
chain: not shown
notes: CDK-5, serine/threonine kinase of C. elegans (Cdk5 orthologue), expressed from the endogenous locus; also called CDK-5::FLAG; CDK-5::FLAG CRISPR; source: C. elegans, endogenous locus tagged by CRISPR/Cas9, in whole animal lysate; not shown: 3xFLAG, C-terminal, kept
- fold change of co-precipitated CDK-5::FLAG, rpm-1 LD CRISPR background against wild-type background: ~6 fold
